Measurements taken from patent US20160252497A1 (NGM BIOPHARMACEUTICALS, published 2016).

Columns and labels:
[1] = target: T1, KLB (Klotho-beta), as used in the Biacore assay; assay: Biacore (data not shown)
T1 construct: The form of KLB in the assay is not described; also called Klotho-β

[2] = target: FGFR4-KLB receptor complex (solid phase binding assay); assay: solid phase binding assay on the FGFR4-KLB receptor complex; bound ligand detected with a biotinylated FGF19-specific polyclonal antibody, absorbance at 450 nm
From the text: (§1) (B) Binding of M70 to FGFR4 by Biacore. Similar procedures to (A) were used. (C) Solid phase binding of M70 or FGF19 to FGFR4-KLB receptor complex. The bound ligands were detected using a biotinylated FGF19-specific polyclonal antibody. (D) Relative luciferase activity after stimulation with M70 or FGF19 in L6 cells transiently transfected with FGFR4 in the presence or absence of KLB. (E) M70 induces ERK phosphorylation in Hep3B cells. (F) M70 repressed Cyp7a1 expression in primary hepatocytes of mouse, rat, and human origin. Relative expression of Cyp7a1 mRNA in hepatocytes were determined by qRT-PCR and normalized to 18S RNA (mouse and rat) or actin (human) mRNA levels. (G) Repression of hepatic Cyp7a1 expression by M70 in mice. 12-week-old db/db mice were injected intraperitoneally with recombinant M70 or FGF19 protein. Mice were euthanized 4 hours after dosing and hepatic Cyp7a1 expression was evaluated by qRT-PCR and normalized to 18S RNA expression. Dose response curves of Cyp7a1 repression in mice were shown. All values represent mean±SEM.
To elucidate the molecular mechanism that underline M70's inability to induce liver tumors, the interaction of M70 to the known receptor complex of FGF19 was assessed. Surface plasmon resonance (SPR) analysis was used to measure direct binding of M70 or FGF19 to FGFR4. […]

[3] = target: T2, Fc fusion protein of the extracellular domain (ECD) of FGFR4; assay: Biacore SPR, ligand flowed over chip coated with FGFR4 ECD-Fc, steady state fit
T2 construct: extracellular domain; Immobilized on Biacore flow cells; also called FGFR4-Fc chimeric protein; FGFR4-Fc
From the text: as §1, with “FIGS. 9A-9G depicts M70 binding and activation of FGFR4 in vitro. (A) Biacore SPR assay of the interaction between FGF19 and FGFR4-Fc chimeric proteins immobilized on flow cells. […] (B)” for “(B)”
To elucidate the molecular mechanism that underline M70's inability to induce liver tumors, the interaction of M70 to the known receptor complex of FGF19 was assessed. […]

[4] = target: Human FGFR4 on primary human hepatocytes (human, UniProt P22455 22-802); assay: cell-based or functional assay
[5] = target: Human FGFR4 and KLB expressed endogenously on Hep3B cells (human, UniProt P22455 22-802; Q86Z14 1-1044); assay: cell-based or functional assay
[6] = target: Rat FGFR4 on primary rat hepatocytes (rat, UniProt Q498D6 17-800); assay: cell-based or functional assay
[7] = target: Mouse FGFR4 and mouse KLB co-expressed on rat L6 cells (mouse, UniProt Q03142 17-799; Q99N32 1-1043); assay: cell-based or functional assay
[8] = target: T3, Mouse FGFR4 on cells (L6 cells transfected with FGFR4 alone; primary mouse hepatocytes) (mouse, UniProt Q03142 17-799); assay: cell-based or functional assay
T3 sequence (looked up): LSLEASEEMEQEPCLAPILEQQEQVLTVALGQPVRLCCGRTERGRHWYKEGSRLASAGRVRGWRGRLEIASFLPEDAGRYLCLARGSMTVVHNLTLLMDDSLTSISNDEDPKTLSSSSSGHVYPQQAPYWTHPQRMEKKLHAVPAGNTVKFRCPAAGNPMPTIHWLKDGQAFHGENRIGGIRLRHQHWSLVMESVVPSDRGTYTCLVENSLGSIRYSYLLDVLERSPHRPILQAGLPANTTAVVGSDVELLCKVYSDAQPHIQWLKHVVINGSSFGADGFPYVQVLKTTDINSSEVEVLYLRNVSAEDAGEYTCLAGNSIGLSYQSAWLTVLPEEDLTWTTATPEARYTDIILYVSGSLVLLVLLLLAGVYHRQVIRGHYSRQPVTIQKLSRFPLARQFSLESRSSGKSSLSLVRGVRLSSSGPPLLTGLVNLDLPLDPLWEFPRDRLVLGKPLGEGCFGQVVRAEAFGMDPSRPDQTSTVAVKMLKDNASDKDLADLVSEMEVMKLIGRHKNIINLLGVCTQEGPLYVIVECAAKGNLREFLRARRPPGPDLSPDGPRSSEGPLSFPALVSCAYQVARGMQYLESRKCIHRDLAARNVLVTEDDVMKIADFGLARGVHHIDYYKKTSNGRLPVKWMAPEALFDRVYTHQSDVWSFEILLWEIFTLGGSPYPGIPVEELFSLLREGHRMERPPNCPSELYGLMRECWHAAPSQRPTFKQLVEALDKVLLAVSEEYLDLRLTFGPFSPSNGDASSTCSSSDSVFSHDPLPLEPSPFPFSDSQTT

Sequence of Rat FGFR4 on primary rat hepatocytes (Q498D6 17-800): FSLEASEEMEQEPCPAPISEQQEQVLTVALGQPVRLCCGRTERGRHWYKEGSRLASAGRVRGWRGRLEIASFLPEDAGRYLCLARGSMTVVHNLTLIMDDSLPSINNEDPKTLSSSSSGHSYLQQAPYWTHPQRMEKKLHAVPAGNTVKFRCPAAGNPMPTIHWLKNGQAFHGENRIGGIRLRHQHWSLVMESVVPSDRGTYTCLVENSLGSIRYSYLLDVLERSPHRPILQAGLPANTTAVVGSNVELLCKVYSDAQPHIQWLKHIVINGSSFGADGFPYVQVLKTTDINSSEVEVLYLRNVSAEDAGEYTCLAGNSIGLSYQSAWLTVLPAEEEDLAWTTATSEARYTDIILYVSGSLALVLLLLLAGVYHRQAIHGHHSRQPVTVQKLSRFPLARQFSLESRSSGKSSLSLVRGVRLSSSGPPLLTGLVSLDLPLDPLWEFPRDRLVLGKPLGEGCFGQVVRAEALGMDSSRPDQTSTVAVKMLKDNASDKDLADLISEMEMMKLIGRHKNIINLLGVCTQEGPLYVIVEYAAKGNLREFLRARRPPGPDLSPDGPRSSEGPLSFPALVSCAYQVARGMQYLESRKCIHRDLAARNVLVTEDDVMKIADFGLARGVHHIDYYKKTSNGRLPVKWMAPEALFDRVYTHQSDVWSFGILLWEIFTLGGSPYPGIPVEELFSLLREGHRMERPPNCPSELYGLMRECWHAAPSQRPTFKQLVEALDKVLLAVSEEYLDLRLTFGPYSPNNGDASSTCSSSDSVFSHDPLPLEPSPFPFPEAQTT
T2 sequence (P22455 22-369): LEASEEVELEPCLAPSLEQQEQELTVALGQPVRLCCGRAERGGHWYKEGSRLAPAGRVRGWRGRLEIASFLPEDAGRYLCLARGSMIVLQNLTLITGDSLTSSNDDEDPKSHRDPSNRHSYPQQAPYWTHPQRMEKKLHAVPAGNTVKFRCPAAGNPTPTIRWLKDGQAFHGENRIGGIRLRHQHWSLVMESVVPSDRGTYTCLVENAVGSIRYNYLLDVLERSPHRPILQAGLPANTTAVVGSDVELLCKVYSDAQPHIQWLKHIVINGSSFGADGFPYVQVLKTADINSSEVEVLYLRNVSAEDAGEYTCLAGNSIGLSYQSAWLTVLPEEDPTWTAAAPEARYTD
Sequence of FGFR4-KLB receptor complex (solid phase binding assay) (chain, as listed by the source, chain 1 of 2): as the sequence (P22455 22-369) above
Sequence of FGFR4-KLB receptor complex (solid phase binding assay) (chain, as listed by the source, chain 2 of 2): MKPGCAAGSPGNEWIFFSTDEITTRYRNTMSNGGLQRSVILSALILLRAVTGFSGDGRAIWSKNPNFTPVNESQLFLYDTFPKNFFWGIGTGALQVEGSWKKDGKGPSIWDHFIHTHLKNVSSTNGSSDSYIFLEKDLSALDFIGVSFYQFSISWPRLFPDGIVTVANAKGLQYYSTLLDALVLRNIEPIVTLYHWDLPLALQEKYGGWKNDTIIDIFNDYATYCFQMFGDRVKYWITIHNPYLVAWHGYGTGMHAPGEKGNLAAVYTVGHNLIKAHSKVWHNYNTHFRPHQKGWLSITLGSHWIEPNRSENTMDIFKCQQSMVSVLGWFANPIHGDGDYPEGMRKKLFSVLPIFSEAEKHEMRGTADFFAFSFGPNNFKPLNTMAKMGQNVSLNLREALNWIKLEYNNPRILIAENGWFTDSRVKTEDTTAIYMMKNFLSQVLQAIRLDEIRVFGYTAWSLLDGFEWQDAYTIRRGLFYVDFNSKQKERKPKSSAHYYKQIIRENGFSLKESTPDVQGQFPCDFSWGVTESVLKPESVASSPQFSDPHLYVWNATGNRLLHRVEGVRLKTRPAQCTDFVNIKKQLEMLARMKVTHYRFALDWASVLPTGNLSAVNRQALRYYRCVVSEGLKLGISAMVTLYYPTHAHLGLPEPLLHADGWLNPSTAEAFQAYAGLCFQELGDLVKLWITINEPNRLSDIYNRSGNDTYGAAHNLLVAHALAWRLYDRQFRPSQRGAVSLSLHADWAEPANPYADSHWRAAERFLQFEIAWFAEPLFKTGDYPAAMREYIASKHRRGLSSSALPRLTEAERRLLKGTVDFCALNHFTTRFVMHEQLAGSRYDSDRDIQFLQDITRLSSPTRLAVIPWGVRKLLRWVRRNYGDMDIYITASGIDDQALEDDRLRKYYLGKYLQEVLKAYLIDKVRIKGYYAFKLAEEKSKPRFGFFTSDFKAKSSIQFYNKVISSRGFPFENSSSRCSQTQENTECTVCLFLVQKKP
Sequence of Human FGFR4 on primary human hepatocytes (P22455 22-802): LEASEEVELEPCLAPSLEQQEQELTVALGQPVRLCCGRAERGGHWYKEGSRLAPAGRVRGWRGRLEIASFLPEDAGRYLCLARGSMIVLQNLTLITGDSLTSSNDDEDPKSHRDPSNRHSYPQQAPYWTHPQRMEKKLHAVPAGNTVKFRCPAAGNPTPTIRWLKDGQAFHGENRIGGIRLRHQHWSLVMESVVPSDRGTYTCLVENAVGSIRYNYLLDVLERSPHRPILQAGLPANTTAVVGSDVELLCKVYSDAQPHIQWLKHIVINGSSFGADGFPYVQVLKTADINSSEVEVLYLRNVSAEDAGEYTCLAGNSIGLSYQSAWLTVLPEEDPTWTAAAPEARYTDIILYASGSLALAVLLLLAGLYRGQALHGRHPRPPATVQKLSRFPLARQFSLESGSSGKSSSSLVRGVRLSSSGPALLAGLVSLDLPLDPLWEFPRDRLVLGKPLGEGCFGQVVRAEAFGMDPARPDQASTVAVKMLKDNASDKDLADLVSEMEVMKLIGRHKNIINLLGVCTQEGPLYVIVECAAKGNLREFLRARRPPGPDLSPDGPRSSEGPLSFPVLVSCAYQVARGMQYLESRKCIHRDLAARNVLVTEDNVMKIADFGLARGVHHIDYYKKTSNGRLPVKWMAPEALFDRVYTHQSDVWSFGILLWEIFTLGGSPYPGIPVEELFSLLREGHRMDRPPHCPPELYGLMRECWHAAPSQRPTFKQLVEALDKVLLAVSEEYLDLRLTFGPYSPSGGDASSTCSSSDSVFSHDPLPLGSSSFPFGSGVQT
Sequence of Human FGFR4 and KLB expressed endogenously on Hep3B cells (P22455 22-802, chain 1 of 2): as the sequence (P22455 22-802) above
Sequence of Human FGFR4 and KLB expressed endogenously on Hep3B cells (Q86Z14 whole entry, chain 2 of 2): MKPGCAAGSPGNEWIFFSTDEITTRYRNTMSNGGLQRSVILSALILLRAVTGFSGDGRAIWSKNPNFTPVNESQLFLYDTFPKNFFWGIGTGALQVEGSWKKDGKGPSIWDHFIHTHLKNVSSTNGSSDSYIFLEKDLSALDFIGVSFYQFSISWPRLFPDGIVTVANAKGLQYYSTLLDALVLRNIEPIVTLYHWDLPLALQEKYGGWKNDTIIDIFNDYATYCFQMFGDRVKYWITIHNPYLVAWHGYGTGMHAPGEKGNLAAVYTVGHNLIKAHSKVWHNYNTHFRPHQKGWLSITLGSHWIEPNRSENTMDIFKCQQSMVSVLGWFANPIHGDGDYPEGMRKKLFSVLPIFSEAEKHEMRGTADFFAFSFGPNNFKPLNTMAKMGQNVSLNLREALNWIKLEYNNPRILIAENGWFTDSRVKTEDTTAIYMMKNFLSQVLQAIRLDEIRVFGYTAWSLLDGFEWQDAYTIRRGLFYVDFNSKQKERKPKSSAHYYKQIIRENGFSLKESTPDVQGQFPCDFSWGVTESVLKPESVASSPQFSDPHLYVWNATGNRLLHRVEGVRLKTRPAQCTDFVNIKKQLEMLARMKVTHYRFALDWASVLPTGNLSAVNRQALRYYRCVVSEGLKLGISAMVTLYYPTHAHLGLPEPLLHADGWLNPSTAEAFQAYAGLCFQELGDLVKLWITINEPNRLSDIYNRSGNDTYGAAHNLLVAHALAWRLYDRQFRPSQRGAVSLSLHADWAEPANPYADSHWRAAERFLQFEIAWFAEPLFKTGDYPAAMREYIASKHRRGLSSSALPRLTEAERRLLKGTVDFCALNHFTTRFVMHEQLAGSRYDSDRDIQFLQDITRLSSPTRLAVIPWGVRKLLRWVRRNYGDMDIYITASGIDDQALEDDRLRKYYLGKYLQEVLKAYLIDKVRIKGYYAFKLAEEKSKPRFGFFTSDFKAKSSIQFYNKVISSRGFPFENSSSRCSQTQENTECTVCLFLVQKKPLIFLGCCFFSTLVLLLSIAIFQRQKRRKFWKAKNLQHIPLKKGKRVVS
Sequence of Mouse FGFR4 and mouse KLB co-expressed on rat L6 cells (Q99N32 whole entry, one chain of several): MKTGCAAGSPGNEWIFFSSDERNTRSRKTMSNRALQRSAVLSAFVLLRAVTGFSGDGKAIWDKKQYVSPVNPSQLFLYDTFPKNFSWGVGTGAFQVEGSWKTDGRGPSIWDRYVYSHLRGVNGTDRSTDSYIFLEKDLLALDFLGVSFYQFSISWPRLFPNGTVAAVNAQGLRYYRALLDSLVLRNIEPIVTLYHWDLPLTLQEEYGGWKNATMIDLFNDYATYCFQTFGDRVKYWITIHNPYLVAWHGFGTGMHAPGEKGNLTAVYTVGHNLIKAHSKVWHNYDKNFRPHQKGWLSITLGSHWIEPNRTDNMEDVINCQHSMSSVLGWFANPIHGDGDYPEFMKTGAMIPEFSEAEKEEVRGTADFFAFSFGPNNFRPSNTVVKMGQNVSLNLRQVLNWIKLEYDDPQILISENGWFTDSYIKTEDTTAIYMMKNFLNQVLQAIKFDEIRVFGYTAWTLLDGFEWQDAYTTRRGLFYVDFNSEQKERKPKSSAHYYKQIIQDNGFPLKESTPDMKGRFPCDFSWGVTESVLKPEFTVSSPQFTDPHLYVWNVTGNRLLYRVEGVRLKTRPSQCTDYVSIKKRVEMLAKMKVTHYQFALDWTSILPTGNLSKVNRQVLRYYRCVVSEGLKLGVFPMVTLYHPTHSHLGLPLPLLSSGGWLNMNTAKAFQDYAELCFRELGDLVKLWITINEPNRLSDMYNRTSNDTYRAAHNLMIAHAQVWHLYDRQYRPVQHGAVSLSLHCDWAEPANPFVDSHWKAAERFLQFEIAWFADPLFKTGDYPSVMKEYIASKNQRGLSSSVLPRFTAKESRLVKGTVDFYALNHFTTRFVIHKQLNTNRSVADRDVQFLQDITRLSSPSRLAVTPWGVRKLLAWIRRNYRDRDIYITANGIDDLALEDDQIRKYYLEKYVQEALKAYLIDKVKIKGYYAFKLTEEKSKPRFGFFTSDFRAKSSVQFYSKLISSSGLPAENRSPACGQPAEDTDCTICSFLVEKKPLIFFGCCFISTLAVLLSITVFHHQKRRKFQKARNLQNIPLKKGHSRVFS

B1: M70 (FGF19 variant carrying 3 amino acid substitutions A30S, G31S, H33L and a 5-amino acid deletion) (ligand)
chain: MRDSSPLVHYGWGDPIRLRHLYTSGPHGLSSCFLRIRADGVVDCARGQSAHSLLEIKAVALRTVAIKGVHSVRYLCMGADGKMQGLLQYSEEDCAFEEEIRPDGYNVYRSEKHRLPVSLSSAKQRQLYKNRGFLPLSHFLPMLPMVPEEPEDLRGHLESDMFSSPLETDSMDPFGLVTGLEAVRSPSFEK
notes: Engineered variant of human FGF19; also called FGF19 variant M70; recombinant M70 protein
[1]
  Kd: 0.0241 nM
[2]
  EC50 (read off the curve): ~2 nM
[3]
  Kd: 134 nM
[4]
  repression of Cyp7a1 expression in primary human hepatocytes (IC50): 0.0068 nM
[5]
  phosphorylation and activation of ERK in Hep3B cells (EC50): 0.38 nM
[6]
  repression of Cyp7a1 expression in primary rat hepatocytes (IC50): 0.00049 nM
[7]
  GAL-Elk1 luciferase reporter activity in L6 cells co-expressing FGFR4 and KLB (EC50): 0.038 nM
[8]
  GAL-Elk1 luciferase reporter activity in L6 cells transfected with FGFR4 alone (reduction in potency against FGFR4 plus KLB): 500 fold
  repression of Cyp7a1 expression in primary mouse hepatocytes (IC50): 0.00064 nM
